The text below walks through data of paper PMC7057995, “Structural basis of RNA polymerase I pre-initiation complex formation and promoter melting”.

This data set deals with Core factor (CF) wild type: Rrn6/Rrn7/Rrn11 (Saccharomyces cerevisiae, UniProt P32786;P40992;Q04712 1-894;1-514;1-507). Put plainly: EMSA; 0.2 pmol DNA; 0.25, 0.5, 1 pmol CF; EMSA: 20 mM HEPES/KOH pH 7.8, 10% glycerol, 200 mM KCl, 1 mM MgCl2, 0.1 mg/ml BSA, 1 mM DTT, 30 min, temperature not stated; 6% native gel, 0.5x TBE. The note with it: protein: recombinant; tags: His (Ni-NTA purified); copies: 1;1;1; label: NTS -3 Atto647N; TS -5 Cy3; blunt.
Chain of Core factor (CF) wild type: Rrn6/Rrn7/Rrn11 (P32786 whole entry, chain 1 of 3): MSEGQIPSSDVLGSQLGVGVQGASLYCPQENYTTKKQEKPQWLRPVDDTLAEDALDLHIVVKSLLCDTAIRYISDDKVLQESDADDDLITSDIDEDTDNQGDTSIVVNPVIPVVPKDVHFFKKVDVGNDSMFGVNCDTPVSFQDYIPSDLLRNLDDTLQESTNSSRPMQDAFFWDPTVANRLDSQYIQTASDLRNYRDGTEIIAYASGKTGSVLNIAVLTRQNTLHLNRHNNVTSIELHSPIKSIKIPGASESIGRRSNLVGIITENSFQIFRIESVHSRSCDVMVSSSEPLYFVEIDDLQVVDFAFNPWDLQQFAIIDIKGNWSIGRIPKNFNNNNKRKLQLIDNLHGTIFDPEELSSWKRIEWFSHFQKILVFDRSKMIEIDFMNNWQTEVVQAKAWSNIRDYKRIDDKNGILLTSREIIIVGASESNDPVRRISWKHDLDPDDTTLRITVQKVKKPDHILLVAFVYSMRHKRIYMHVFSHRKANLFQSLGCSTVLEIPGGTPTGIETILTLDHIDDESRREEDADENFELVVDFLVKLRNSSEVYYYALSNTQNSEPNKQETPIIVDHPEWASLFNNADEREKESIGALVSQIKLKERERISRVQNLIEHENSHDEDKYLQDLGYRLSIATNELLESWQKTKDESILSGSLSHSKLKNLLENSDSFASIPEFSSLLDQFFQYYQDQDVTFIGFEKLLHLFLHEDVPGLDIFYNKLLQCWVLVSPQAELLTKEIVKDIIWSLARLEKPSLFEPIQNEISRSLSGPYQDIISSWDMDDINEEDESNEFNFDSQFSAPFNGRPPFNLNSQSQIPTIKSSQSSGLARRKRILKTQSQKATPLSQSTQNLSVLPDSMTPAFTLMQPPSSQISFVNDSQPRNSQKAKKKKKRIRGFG
Chain of Core factor (CF) wild type: Rrn6/Rrn7/Rrn11 (P40992 whole entry, chain 2 of 3): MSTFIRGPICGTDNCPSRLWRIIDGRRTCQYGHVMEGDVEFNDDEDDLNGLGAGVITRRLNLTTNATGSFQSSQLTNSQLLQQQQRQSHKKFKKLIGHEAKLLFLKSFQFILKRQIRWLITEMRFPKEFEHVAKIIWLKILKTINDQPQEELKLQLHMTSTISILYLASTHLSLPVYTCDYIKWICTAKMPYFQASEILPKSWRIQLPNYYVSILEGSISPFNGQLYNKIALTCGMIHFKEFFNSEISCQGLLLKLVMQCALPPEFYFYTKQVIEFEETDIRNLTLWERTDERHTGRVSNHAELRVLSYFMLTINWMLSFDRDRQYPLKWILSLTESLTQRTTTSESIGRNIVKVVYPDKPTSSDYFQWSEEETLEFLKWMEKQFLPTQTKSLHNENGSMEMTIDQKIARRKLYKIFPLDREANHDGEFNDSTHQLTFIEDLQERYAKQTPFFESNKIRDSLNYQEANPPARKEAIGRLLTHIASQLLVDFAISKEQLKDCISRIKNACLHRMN
Chain of Core factor (CF) wild type: Rrn6/Rrn7/Rrn11 (Q04712 whole entry, chain 3 of 3): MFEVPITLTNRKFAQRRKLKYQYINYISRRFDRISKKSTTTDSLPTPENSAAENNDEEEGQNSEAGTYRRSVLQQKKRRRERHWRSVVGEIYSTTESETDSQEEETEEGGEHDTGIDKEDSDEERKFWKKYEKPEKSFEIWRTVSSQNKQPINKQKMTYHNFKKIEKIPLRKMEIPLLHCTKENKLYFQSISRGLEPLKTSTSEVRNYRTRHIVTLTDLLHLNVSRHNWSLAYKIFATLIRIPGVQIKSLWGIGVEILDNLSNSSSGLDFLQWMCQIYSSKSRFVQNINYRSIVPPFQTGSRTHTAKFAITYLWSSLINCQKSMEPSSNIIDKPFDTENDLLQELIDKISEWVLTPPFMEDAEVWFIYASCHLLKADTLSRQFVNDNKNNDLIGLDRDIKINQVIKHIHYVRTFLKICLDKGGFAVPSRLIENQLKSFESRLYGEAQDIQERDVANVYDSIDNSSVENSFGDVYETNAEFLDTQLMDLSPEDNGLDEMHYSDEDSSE

B1: rDNA promoter -83 to +26 (EMSA; ID 4691/4692) (dsDNA)
DNA 1: AAAAGTAAGATTTTAGTTTGTAATGGGAGGGGGAATTTAGTCATGGAGTACAAGTGTGAGGAAAAGTAGTTGGGAGGTACTTCATACCAAAGGGGTTCAACACAAGGGT
DNA 2: ACCCTTGTGTTGAACCCCTTTGGTATGAAGTACCTCCCAACTACTTTTCCTCACACTTGTACTCCATGACTAAATTCCCCCTCCCATTACAAACTAAAATCTTACTTTT
On to B1, for which the binding result is listed as “binds”.
